In the supplement of paper PMC10567573:

B1: DYRK1B (parent)
chain: ARKYFERLPGGGWTLRRTKELRKD

Variants of: B1
Experiment: protein stability index of a GFP-peptide fusion (GPS, HEK-293T) (PSI 1-6); higher = more stable
Details: c terminus: a fixed tail appended
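Also: lentivirally expressed fusions sorted by FACS into six bins by GFP to DsRed ratio, PSI derived from sequencing read proportions per bin multiplied by bin number.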

Protein stability index, by site and new letter:
A1: K 4.13 | T 3.31 | N 3.69 | P 2.89 | G 3.78 | Y 2.27 | R 3.19 | I 2.47 | S 3.9 | D 4.11 | F 2.44 | M 2.84 | L 2.36 | V 3.19 | E 3.96 | H 3.66 | Q 3.7
P9: V 2.96 | C 1.91 | T 3.02 | N 1.97 | K 2.5 | R 3.22 | L 2.43 | F 1.87 | H 2.48 | I 2.13 | Y 1.9 | W 2.11 | A 2.83 | D 4.24 | Q 3.67 | E 3.41
L15: C 3.29 | K 3.15 | M 3.25 | N 2.95 | H 3.85 | Y 3.73 | I 3.22 | V 4.02 | P 2.7 | A 3.78 | R 3.34 | Q 3.65 | T 3.35 | D 2.88
G11: Q 3.34 | L 3.11 | D 2.93 | C 3.26 | F 2.89 | W 2.82 | V 2.48 | P 2.74 | Y 2.73 | I 2.79 | S 2.49 | T 3.46 | N 3.17 | H 2.4 | K 2.06 | M 2.78
G10: Y 2.35 | R 3.75 | D 4.16 | N 4.09 | A 2.93 | I 2.38 | W 2.97 | T 3.19 | V 3.45 | S 3.19 | M 3.27 | F 2.63
E20: A 4.5 | Q 3.26 | I 2.04 | L 3.23 | T 3.27 | K 2.89 | R 3.3 | F 3.57 | H 1.79 | N 3.14 | S 3.34 | D 3.65 | C 3.69 | M 3.38 | Y 3.6 | W 2.76 | G 4.17 | V 3.47
R2: W 2.38 | L 2.96 | K 4.25 | C 3.03 | Y 3.85 | G 3.74 | A 3.77 | F 3.89 | N 3.55 | P 4.56 | H 2.73 | M 2.79 | I 2.83 | Q 3.33 | S 4.28 | E 4.64 | T 3.52 | D 4.1
R17: K 2.69 | N 3.22 | P 2.75 | L 2.43 | Q 2.83 | M 2.38 | G 3.6 | C 2.84 | F 2.58 | V 2.07 | S 3.35 | H 3.2 | Y 3.02 | D 3.54 | I 2.03 | E 3.46 | W 2.35
W13: D 3.59 | T 3.36 | K 3.77 | M 3.54 | L 3.54 | F 3.47 | G 5.15 | N 3.95 | C 4.61 | V 3.07 | P 4.18 | I 3.31 | R 3.3 | E 4.05 | A 3.72 | H 2.52
G12: N 2 | V 2.15 | P 2.96 | I 2.03 | K 3.81 | Y 2.42 | Q 2.95 | F 2.93 | S 3.11 | M 2.95 | H 3.85 | A 3.06 | D 4.15 | E 3.02 | L 2.57 | T 2.98
R22: Y 1.88 | L 2.59 | A 4.14 | M 3.88 | G 4.3 | T 4.19 | H 3.5
